Ends that are not written are not given here. Pep Spots Membrane = cellulose membrane (Jerini Biotools) to which the peptides are covalently attached at their C-termini as individual spots
What was measured:
[1] = molecular target: T1, recombinant soluble human 17-1A-antigen (human, UniProt P16422 24-265); test: SPR (BIACORE 2000), s17-1A immobilized on CM5 chip, 1. set
T1 construct: extracellular domain; also called s17-1A; soluble 17-1A-antigen
T1 sequence (looked up): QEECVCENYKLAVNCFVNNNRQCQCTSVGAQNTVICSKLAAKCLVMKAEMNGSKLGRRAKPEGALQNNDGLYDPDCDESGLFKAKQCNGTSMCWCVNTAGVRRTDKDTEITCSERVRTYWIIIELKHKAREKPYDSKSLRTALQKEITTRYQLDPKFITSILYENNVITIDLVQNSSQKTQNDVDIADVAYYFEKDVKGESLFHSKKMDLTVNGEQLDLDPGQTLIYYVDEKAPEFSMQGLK
Method: Surface plasmon resonance measurement was performed using the BIACORE 2000 device (Biacore AB, Freiburg, Freiburg, Germany). Immobilization of recombinant soluble 17-1A-antigen in each flow cell and analysis of the interaction was carried out with an automatic method in BIACORE 2000. The antigen was covalently coupled to sensor chip CM5 via primary amine groups. After activation of the carboxylated dextran matrix of CM5 sensor chip with a single injection of 80 μl of 0.1 M N-hydroxisuccinimide/0.4 M N-ethyl-N′-(3-dimethylaminopropyl)-carbodiimide (NHS/EDC9) through all four flow cells, flow cells 1,2,3 and 4 were successively included ito the flow path during injection of s17-1A-antigen (60 μg/ml in 10 mM sodium acetate, pH 4.7). Different contact times of 17-1A to the activated surface lead to approximately 2500 response units (RU9 in flow cell 1, […] in flow cell 2, 780 RU in flow cell 3 and 290 RU in flow cell 4). Excess activated esters were blocked by injection of 85 μl 1 M ethanolamine pH 5 over all four flow cells. Binding experiments were performed at 25° C. in buffer of pH 7.4 containing 10 mM Hepes, 150 mM NaCl, 3 mM EDTA and 0.005% surfactant P20. The binding kinetics of antibodies to immobilized recombinant 17-1A were determined by injecting antibody concentrations ranging from 0.5 to 2 μM. The sensor chip was regenerated between each run with 100 mM Glycin, 500 mM NaCl, 0.005% Tween pH3. The association and dissociation rate constants, Kon and Koff were analysed using BIA-evaluation software from Biacore AB as described (Karlsson, (1991) J Immunol Meth 145: 229-240). Two sets of affinity determinations were carried out (1.set: M79, H79, D7.2, Panorex; 2. set: Panorex, HD70); the murine Panorex was also included in set 2 as internal reference.

17-1A peptide 8 = molecular target: T2, 17-1A peptide 8 (human); test: peptide spot membrane, electrotransfer, anti-human secondary antibody, chemoluminescence
T2 construct: also called peptide spot 8
T2 peptide: NYKLAVNCFVNNN-{Pep Spots Membrane}
Excerpt: (§1) Due to a higher degree of crossreactivity of the secondary HRP-conjugated anti-human immunoglobulin antibody with several peptide spots, bound human antibodies H79 and HD70 were transfered from the Pep Spots Membrane to a blotting membrane, respectively, by means of electrotransfer and subsequently detected by said anti human secondary antibody and chemoluminescence. Specific binding of human antibody H79 could be detected mainly at peptide spots 8, 11, 13, 14, 59-60, 77 and 79; however, no binding was detectable in case of human antibody HD70.
(§2) The PepSpots Membrane with the synthesized peptides was shaken for ten minutes in methanol and then washed three times for ten minutes in TBS-buffer pH8. The membrane was then blocked in casein based blocking solution, containing 0.05 g/ml sucrose for one hour and then once shaken in TBS pH8/0.05%Tween 20 (TBS-T).
(§3) Each of the anti-17-1A antibodies was incubated at room temperature together with the membrane for three hours in blocking solution (1 μg antibody/ml). After three washes in TBS-T for ten minutes each, the horse radish peroxidase (HRP)-conjugated secondary antibody (anti mouse/anti human; 1 μg/ml blocking solution) was incubated for two hours at room temperature together with the membrane. Then the membrane was washed for three times in TBS-T for ten minutes each. Detection of bound antibodies was performed directly on the Pep Spots Membrane in case of M79 according to the protocol of the chemoluminescence kit manufacturer (Boehringer). The blot was regenerated after three washes with TBS-T (10 min.) in a solution containing 50 mM Tris-HCl pH 6.7, 100 mM 2-Mercaptoethanol and 2% (w/v) SDS for 30 min at 50° C. and subsequently reused for epitope mapping of the next antibody. Due to the higher degree of unspecific binding of the anti-human immunoglobulin secondary antibody to the polypeptide-spots on the membrane, a fractionated electrotransfer to a second blotting-membrane followed by detection with the anti-human secondary antibody was carried out in case of HD70 and H79 according to Rüdiger, EMBO 16 (1997) 1501-1507. Incubation with the secondary antibody and antibody detection on the blots was performed as described above.

17-1A peptide 11 = molecular target: T3, 17-1A peptide 11 (human, cysteine pairing not given here); test: as above
T3 construct: also called peptide spot 11
T3 peptide: NCFVNNNRQCQCT-{Pep Spots Membrane}
Excerpt: as §1, §2, §3

17-1A peptide 13 = molecular target: T4, 17-1A peptide 13 (human, cysteine pairing not given here); test: as above
T4 construct: also called peptide spot 13
T4 peptide: NNNRQCQCTSVGA-{Pep Spots Membrane}
Excerpt: as §1, §2, §3

17-1A peptide 14 = molecular target: T5, 17-1A peptide 14 (human, cysteine pairing not given here); test: as above
T5 construct: also called peptide spot 14
T5 peptide: NRQCQCTSVGAQN-{Pep Spots Membrane}
Excerpt: as §1, §2, §3

17-1A peptide 59 = molecular target: T6, 17-1A peptide 59 (human); test: as above
T6 construct: also called peptide spot 59
T6 peptide: ITCSERVRTYWII-{Pep Spots Membrane}
Excerpt: as §1, §2, §3

17-1A peptide 60 = molecular target: T7, 17-1A peptide 60 (human); test: as above
T7 construct: also called peptide spot 60
T7 peptide: CSERVRTYWIIIE-{Pep Spots Membrane}
Excerpt: as §1, §2, §3

17-1A peptide 79 = molecular target: T8, 17-1A peptide 79 (human); test: as above
T8 construct: also called peptide spot 79
T8 peptide: RYQLDPKFITSIL-{Pep Spots Membrane}
Excerpt: as §1, §2, §3

[2] = molecular target: T1, recombinant soluble human 17-1A-antigen; test: ELISA of periplasma Fab preparations on immobilized s17-1A
Method: As previously mentioned in example I, E. coli XL1 Blue transformed with pComb3H containing one light and the Fd-segment of one heavy chain produce soluble Fab in sufficient amounts after excision of the gene III fragment and induction with IPTG. The heavy chain Fd-segment and the light chain are exported into the periplasma where they assemble and form functional Fab-fragments. For better periplasma preparations the cells were grown in SB-medium supplemented with 20 mM MgCl₂ and are redissolved in PBS after harvesting. By four rounds of freezing at −70° C. and thawing at 37° C., the outer membrane of the bacteria was destroyed by temperature shock and the soluble periplasmatic proteins including the Fab fragments were released into the supernatant. After elimination of intact cells and cell-debris by centrifugation, the supernatants containing the Fab-antibody-fragments were collected and used for further examination. […]
Detection of k8-D4.5 and k5.1-D4.5-Fab-fragments bound to immobilized s17-1A anigen was carried out using a polyclonal biotinylated anti-human-kappa light chain antibody (1 μg/ml PBS) detected with horse raddish conjugated Avidine (1 μg/ml PBS). The signal was developed by adding a substrate solution, containing 2,2′Azino-bis(3-Ethylbenz-Thiazoline-6-Sulfonic Acid) and Na-perborate and detected at a wavelength of 405 nm.

[3] = molecular target: T9, human 17-1A-antigen on cells (Kato gastric cancer cells, 17-1A-transfected CHO cells, colon tissue) (human, UniProt P16422 24-314); test: flow cytometry on Kato cells and 17-1A-transfected CHO cells, periplasma preparation
T9 construct: whole, on cells; also called transmembrane 17-1A; CHO/17-1A
T9 sequence (looked up): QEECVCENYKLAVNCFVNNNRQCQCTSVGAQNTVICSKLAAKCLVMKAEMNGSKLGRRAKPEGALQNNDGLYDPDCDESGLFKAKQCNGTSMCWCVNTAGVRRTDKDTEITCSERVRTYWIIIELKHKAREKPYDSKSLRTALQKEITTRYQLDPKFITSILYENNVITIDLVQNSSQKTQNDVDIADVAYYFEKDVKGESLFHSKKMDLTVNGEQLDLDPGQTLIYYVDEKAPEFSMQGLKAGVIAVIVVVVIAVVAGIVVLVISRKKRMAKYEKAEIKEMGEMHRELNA
Excerpt: The test for binding of the two 17-1A positive human Fab-fragments (k8-D4.5-Fab and k5.1-D4.5-Fab) on Kato-cells (17-1A expressing gastric cancer cell-line), 17-1A transfected CHO-cells (CHO/17-1A) and non-transfected CHO-cells was again carried out with the periplasma preparations. CHO transfected cell-lines were generated by subcloning of a DNA-fragment encoding the complete amino acid sequence of the 17-1A-antigen also known as GA733-2 (Szala, Proc. Natl. Acad. Sci. U.S.A. 87 (1990), 3542-3546), into the eucaryotic expression vector pEF-DHFR (Mack, , Proc. Natl. Acad. Sci. U.S.A. 92 (1995) 7021-7025) according to standard procedures (Sambrook, Molecular Cloning; A Laboratory Manual, Second Edition, Cold Spring Harbour Laboratory Press, Cold Spring Harbour, N.Y. (1989)). The resulting plasmid was linearized with NdeI and transfected into DHFR-deficient CHO-cells for stable expression. The expression of transmembrane 17-1A was increased by stepwise gene amplification induced by subsequent addition of increasing concentrations of the DHFR-inhibitor Methotrexat (MTX) to a final concentration of 500 nM, with the concentration steps in between being 20 nM and 100 nM (Kaufmann, Methods Enzymol. 185 (1990), 537-566). […] Labeled cells were then analyzed by flow cytometry.

[4] = molecular target: recombinant soluble human 17-1A-antigen (human) (UniProt P16422); test: SPR (BIACORE 2000), s17-1A immobilized on CM5 chip, 1. set
[5] = molecular target: recombinant soluble human 17-1A-antigen (human) (UniProt P16422); test: SPR (BIACORE 2000), s17-1A immobilized on CM5 chip, 2. set (internal reference)

B1: H79-huIgG1 (VD4.5huIgG1-k8) (antibody, V domains shown)
VH: EVQLLESGGGVVQPGRSLRLSCAASGFTFSSYGMHWVRQAPGKGLEWVAVISYDGSNKYYADSVKGRFTISRDNSKNTLYLQMNSLRAEDTAVYYCAKDMGWGSGWRPYYYYGMDVWGQGTTVTVSS
VL: ELQMTQSPSSLSASVGDRVTITCRTSQSISSYLNWYQQKPGQPPKLLIYWASTRESGVPDRFSGSGSGTDFTLTISSLQPEDSATYYCQQSYDIPYTFGQGTKLEIK
notes: Complete antibody produced in CHO cells; also called H79 human IgG1; human H79
Kd [1]: 340 nM
koff [1]: 0.0072 s⁻¹
kon [1]: 21000 M⁻¹ s⁻¹
binding result (17-1A peptide 8): binds
binding result (17-1A peptide 11): binds
binding result (17-1A peptide 13): binds
binding result (17-1A peptide 14): binds
binding result (17-1A peptide 59): binds
binding result (17-1A peptide 60): binds
binding result (17-1A peptide 79): binds

B2: k5.1-D4.5-Fab (Fab, V domains shown)
VH: B1 VH
VL: ELQMTQSPSSLSASVGDRVTITCRASQSISSYLNWYQQKPGQPPKLLIYWASTRESGVPDRFSGSESGTNYTLTISSLQPEDFATYFCQQSDSLPITFGQGTRLDIQ
notes: Soluble Fab tested as an E. coli periplasma preparation
binding result [2]: binds
binding result [3]: binds

B3: Panorex (antibody, INN chains, looked up, V domains shown)
VH: QVQLQQSGAELVRPGTSVKVSCKASGYAFTNYLIEWVKQRPGQGLEWIGVINPGSGGTNYNEKFKGKATLTADKSSSTAYMQLSSLTSDDSAVYFCARDGPWFAYWGQGTLVTVSA
VL: NIVMTQSPKSMSMSVGERVTLTCKASENVVTYVSWYQQKPEQSPKLLIYGASNRYTGVPDRFTGSGSATDFTLTISSVQAEDLADYHCGQGYSYPYTFGGGTKLEIK
Kd [4]: 200 nM
koff [4]: 0.022 s⁻¹
kon [4]: 110000 M⁻¹ s⁻¹
Kd [5]: 270 nM
koff [5]: 0.027 s⁻¹
kon [5]: 100000 M⁻¹ s⁻¹

— US20030148463A1 (published 2003)
